# US20110135573A1, “METALLOPROTEINASE 9 AND METALLOPROTEINASE 2 BINDING PROTEINS” (DYAX CORP., priority 2009, published 2011)
# How the values were obtained:
# [1] = target: human MMP-2 (Biomol #SE-237) (human) (UniProt P08253); assay: Ki,app, enzyme inhibition assay (fluorogenic peptide substrate)
# [2] = target: Human MMP-9 catalytic domain (BIOMOL, SE-244) (human) (UniProt P14780); assay: cell-based or functional assay
# Chain of Human MMP-9 catalytic domain (BIOMOL, SE-244) (human) (P14780 107-457 limits assumed): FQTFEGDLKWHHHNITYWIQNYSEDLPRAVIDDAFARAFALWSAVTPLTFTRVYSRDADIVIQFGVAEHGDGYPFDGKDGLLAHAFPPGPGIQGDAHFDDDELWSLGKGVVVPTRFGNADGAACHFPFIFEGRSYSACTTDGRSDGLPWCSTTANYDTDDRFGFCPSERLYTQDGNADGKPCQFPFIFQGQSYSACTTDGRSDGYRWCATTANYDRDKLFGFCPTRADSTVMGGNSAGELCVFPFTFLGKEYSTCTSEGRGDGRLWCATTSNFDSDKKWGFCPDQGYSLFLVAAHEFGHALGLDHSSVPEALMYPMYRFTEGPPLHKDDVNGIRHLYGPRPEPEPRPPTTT
# Chain of human MMP-2 (Biomol #SE-237) (human) (P08253 110-452 limits assumed): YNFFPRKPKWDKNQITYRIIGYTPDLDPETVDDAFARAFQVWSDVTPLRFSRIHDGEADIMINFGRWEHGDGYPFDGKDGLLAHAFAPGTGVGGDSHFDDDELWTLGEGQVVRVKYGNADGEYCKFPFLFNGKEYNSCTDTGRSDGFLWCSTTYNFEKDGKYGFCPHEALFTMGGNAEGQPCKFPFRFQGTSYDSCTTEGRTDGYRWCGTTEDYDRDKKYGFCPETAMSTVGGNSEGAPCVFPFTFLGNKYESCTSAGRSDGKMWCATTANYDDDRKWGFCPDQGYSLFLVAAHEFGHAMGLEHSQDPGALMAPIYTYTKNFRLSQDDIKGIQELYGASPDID
Substance,Ki [1],IC50 (enzyme inhibition) [2]
Anti-hMMP-2 R&D Systems pAb # AF902 (antibody),6 nM,
Anti-hMMP-9 R&D Systems pAb # AB911 (antibody),,> 500 nM
